Test results as given in patent publication US20030215899A1, “Reversible oxidation of protein tyrosine phosphatases” (CEPTYR, Inc., priority 2002, published 2003).

Molecular target: PDGFR (ligand-activated, tyrosine phosphorylated) (rat (endogenous protein of Rat-1 fibroblasts)) (UniProt Q05030)
Test: preliminary studies in ligand-stimulated Rat-1 cells; method not stated

Chain of PDGFR (ligand-activated, tyrosine phosphorylated) (rat (endogenous protein of Rat-1 fibroblasts)) (Q05030 32-1097 limits assumed): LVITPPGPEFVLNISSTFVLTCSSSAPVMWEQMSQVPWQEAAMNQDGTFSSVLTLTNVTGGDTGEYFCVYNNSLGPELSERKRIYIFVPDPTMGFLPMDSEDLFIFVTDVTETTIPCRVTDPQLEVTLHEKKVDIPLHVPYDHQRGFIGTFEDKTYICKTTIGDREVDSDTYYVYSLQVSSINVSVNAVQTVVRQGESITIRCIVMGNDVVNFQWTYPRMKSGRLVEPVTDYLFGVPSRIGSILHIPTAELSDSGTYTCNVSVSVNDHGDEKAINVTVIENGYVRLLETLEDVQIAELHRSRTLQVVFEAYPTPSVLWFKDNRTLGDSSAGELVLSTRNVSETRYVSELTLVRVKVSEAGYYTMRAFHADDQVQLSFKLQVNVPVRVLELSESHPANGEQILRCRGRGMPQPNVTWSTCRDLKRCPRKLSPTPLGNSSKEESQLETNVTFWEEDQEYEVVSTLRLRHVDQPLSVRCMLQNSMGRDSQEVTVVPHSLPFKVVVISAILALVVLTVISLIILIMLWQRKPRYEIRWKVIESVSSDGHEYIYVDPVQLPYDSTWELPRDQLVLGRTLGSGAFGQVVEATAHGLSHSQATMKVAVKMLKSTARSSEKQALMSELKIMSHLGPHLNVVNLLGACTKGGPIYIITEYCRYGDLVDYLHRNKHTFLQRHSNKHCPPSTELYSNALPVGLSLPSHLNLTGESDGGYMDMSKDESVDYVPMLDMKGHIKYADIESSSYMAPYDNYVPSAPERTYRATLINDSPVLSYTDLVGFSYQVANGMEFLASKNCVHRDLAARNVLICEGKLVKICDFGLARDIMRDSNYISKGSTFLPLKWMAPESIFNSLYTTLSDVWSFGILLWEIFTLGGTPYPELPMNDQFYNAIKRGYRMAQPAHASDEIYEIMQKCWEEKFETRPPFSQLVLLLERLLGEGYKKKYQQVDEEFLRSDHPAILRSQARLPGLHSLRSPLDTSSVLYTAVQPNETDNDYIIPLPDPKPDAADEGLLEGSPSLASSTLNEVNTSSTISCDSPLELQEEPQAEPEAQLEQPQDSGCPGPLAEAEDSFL

percent of the total population of SHP-2 recruited into a complex: 10%
Substance: SHP-2 (from UniProt P41499 2-593) (enzyme)
